In patent US20150065421A1, “BASAL INSULIN THERAPY” (SANOFI, priority 2012, published 2015):

Assays:
Type in all cases: in vivo, human
[1] = system: people at high risk for vascular disease with either IFG, IGT, or early type 2 diabetes; experiment: ORIGIN trial: blood triglyceride and cholesterol change; conditions: glargine group
[2] = system: participants without diabetes at randomization (IFG and/or IGT); experiment: ORIGIN trial: new type 2 diabetes in participants without baseline diabetes (oral glucose tolerance tests)
Description: (§1) Participants were asked to self-administer daily subcutaneous saline injections and to check their capillary glucose levels during a 10 day run-in period. Adherent participants were then provided with lifestyle advice and randomly allocated to either insulin glargine (Lantus™) or standard approaches to glycaemic control. Participants allocated to insulin glargine who were also taking a thiazolidinedione stopped that medication at the time of randomization; otherwise the insulin glargine was added to their glycemic regimen. These participants were instructed to inject insulin glargine in the evening, starting at 2, 4 or 6 units (depending on their initial FPG) and to increase the dose at least once per week targeting a self-measured FPG level ≦5.3 mmol/l (95 mg/dl) and ≧4 mmol/l (72 mg/dl). […] If participants developed uncontrolled hyperglycemia, investigators were permitted to add rapid-acting insulin. No other glucose-lowering medication could be added or increased. FPG levels were measured in the local laboratory at every visit and the results were regularly reviewed along with the dose of insulin to ensure that insulin was being effectively trirated. People not diagnosed with diabetes by the time of the penultimate study visit down-titrated insulin glargine by 10 units per day and stopped any metformin that was prescribed.
(§2) There were 2 co-primary composite CV outcomes. The first was CV death, non-fatal MI or non-fatal stroke, and the second was a composite of any of these events or a revascularization procedure or hospitalization for heart failure. Secondary outcomes included a composite microvascular outcome comprising a doubling of serum creatinine from baseline, progression of albuminuria category from normoalbuminuria or microalbuminuria to microalbuminuria or overt nephropathy, renal replacement therapy, renal death, retinal photocoagulation or vitrectomy for retinopathy. They also included new type 2 diabetes developing by the time of the 1st post-trial oral glucose tolerance test in participants without baseline diabetes, and all-cause mortality. Other outcomes included incident cancers, CV hospitalizations, and angina. Cardiovascular and cancer outcomes were reviewed by adjudicators masked to treatment allocation. Episodes of hypoglycaemia since the prior visit were recorded at each visit. Symptomatic hypoglycemia was classified as confirmed if a concomitant recorded capillary glucose level was <3 mmol/L (54 mg/dL). Severe hypoglycemia was defined as hypoglycemia that required assistance plus either prompt recovery with glucose or glucagon or a documented capillary glucose ≦2.0 (36 mg/dL). New diabetes was diagnosed if 2 consecutive FPG levels within a 4-month period were ≧7 mM (126 mg/dL) during the trial; a diagnosis of diabetes was made by a physician and a pharmacologic antidiabetic agent was being taken and there was evidence of either a FPG ≧7 mM (126 mg/dL) or any glucose value ≧11.1 mM (200 mg/dL); either 1 or more capillary glucose levels were ≧11.1 mM (200 mg/dl) and a lab-measured FPG was ≧7 mmol/l (126 mg/dl) or a lab measured random glucose level was ≧11.1 mM (200 mg/dl) during down-titration of glargine insulin; or any FPG was ≧7 mM (126 mg/dl) or 2 hour plasma glucose was ≧11.1 mM (200 mg/dl) during the first oral glucose tolerance test.
Data were analyzed using SAS (version 9.1 for Solarus) according to an intention-to-treat approach described in the protocol and a predefined statistical analysis plan. […] Baseline characteristics were summarized using means and standard deviatons, medians and interquartile ranges, or counts and percentages as appropriate. Time-to-event curves were constructed using product limit estimation and compared using stratified log-rank tests. Hazard ratios for each outcome were calculated using Cox regression models adjusted for the factorial allocation, baseline diabetes status and a history of a prior CV event before randomization as described in the protocol. […]

[3] = system: people at high risk for vascular disease with either IFG, IGT, or early type 2 diabetes; experiment: ORIGIN trial: hypoglycemia, weight change and glargine adherence
Description: as §1
Outcomes and other data were collected at scheduled study visits at 0.5, 1, 2, and 4 months after randomization and every 4 months thereafter. Weight, waist and hip circumference were measured annually. HbA1c levels were assayed in local laboratories at every visit for the first year and then annually in people without diabetes and every 4 months for people with diabetes. A first morning urine collection was sent centrally and assayed for creatinine and albumin at baseline, 2 yrs and study end.
as §2

[4] = system: people at high risk for vascular disease with either IFG, IGT, or early type 2 diabetes; experiment: ORIGIN trial: cognition outcomes (Mini-Mental Status Exam)
Description: Defined by serial cognitive testing (e.g., mini-mental status examination [MMSE]).
Overall, there was a strong trend (p=0.075) for glargine treatment to be associated with fewer impaired patients. The data, as summarized in Table 7, reflect the Mini-Mental Status Exam (MMSE) data for the number of participants scoring 24 or less at various timepoints (mild impairment). These patients were examined because they represent those at greater risk of further deterioration during the study, and still with enough patients to confer adequate power to make statistical comparisons. There was a significant reduction of cases of mild impairment from baseline at about 4 years.

(Gly A21) Arg (B31) Arg (B32) human insulin [insulin glargine]
change of triglyceride concentration in the blood ([1]; P<0.001 vs standard care): −0.21 (0.03)
Total cholesterol change from baseline to end-of-study ([1]; p 0.044 vs standard care): -0.41 mmol/L
reduction of incidence of new diabetes including suspected cases ([2]; confirmed plus suspected, unconfirmed cases): 30%
OR for protocol-defined new diabetes ([2]; glargine vs standard care, 95% CI 0.58, 0.92, P=0.007): 0.73
OR for new diabetes after 2nd OGTT ([2]; glargine vs standard care, 95% CI 0.64, 1.00, P=0.052): 0.80
incidence of new diabetes including suspected cases ([2]; insulin glargine group): 35%
total rate of diabetes after repeated (2nd) OGTT ([2]; insulin glargine group, median 100 days after insulin was stopped): 30%
participants developing protocol-defined diabetes ([2]; insulin glargine group, up to 1st post-trial OGTT): 25%
less likely to develop protocol-defined diabetes than standard care participants ([2]; up to 1st post-trial OGTT): 27%
more severe hypoglycemia episodes than standard care ([3]; absolute risk difference): approximately 0.7 per 100 person-years
more suspected or confirmed hypoglycemia episodes than standard care ([3]; absolute risk difference): ~11 per 100 person-years
annual incidence of severe hypoglycemia ([3]; basal insulin in ORIGIN): 1.00%
Reason Stopped: N Hyperglycemia (%), Ever Off ([3]; first time off): 4 (0.15) N (%)
Reason Stopped: N Hypoglycemia (%), Ever Off ([3]; first time off): 218 (8.2) N (%)
Reason Stopped: N Wt Gain (%), Ever Off ([3]; first time off): 4 (0.15) N (%)
risk of hypoglycemia relative to standard care participants ([3]; higher): approximately 3 fold
Any Symptomatic Hypoglycemia, Mean Number of Episodes/yr ([3]; in vivo): 2.6 (4.1) Episodes/yr
Any Symptomatic Hypoglycemia, No Episodes During Follow-up (%) ([3]; in vivo): 2691 (43.0) N (%)
Confirmed Symptomatic Hypoglycemia, Mean Number of Episodes/yr ([3]; in vivo): 1.3 (2.3) Episodes/yr
No Confirmed Episodes During follow-up (%) ([3]; in vivo): 3652 (58.3) N (%)
incidence of the first episode of any (confirmed or unconfirmed) hypoglycemia ([3]; insulin glargine group): 16.73 per 100 person-years
mean weight gain ([3]; insulin glargine group): 1.6 kg
participants without any episode of symptomatic hypoglycemia during the entire trial (number) ([3]; insulin glargine group): 2691 participants
incidence of the first episode of nonsevere symptomatic hypoglycemia confirmed by a self-measured glucose level 3 mmol/l (54 mg/dl) ([3]; insulin glargine group, P<0.001): 9.81 per 100 person-years
incidence of the first episode of severe hypoglycemia ([3]; insulin glargine group, P<0.001 vs standard care): 1.00 per 100 person-years
participants without any episode of symptomatic hypoglycemia during the entire trial (percent) ([3]; insulin glargine group, median 6.2 years): 43%
Reason Stopped: N Hyperglycemia (%), Permanently Off ([3]; last time off and stayed off): 2 (0.2) N (%)
Reason Stopped: N Hypoglycemia (%), Permanently Off ([3]; last time off and stayed off): 42 (4.0) N (%)
Reason Stopped: N Wt Gain (%), Permanently Off ([3]; last time off and stayed off): 4 (0.4) N (%)
Severe Hypoglycemia, Total Episodes During Follow-up ([3]; median follow-up 6.2 years): 457
Any Symptomatic Hypoglycemia, ≧1 Episode (N/100py) ([3]; nonsevere): 3573 (16.73) N/100py
Confirmed Symptomatic Hypoglycemia, ≧1 Confirmed Episode (N/100py) ([3]; nonsevere, self-measured glucose ≦3 mmol/l (54 mg/dl)): 2612 (9.81) N/100py
Severe Hypoglycemia, ≧1 Episode (N/100py) ([3]; participants (rate per 100 person-years), P<0.001 vs standard care): 359 (1.00) N/100py
1 or more nonsevere hypoglycemic episodes confirmed by glucose <3 mmol/l (<54 mg/dl) ([3]; people with diabetes at enrollment): 10.5 per 100 person-years
1 or more nonsevere hypoglycemic episodes confirmed by glucose <3 mmol/l (<54 mg/dl) ([3]; people without diabetes at enrollment): 5.7 per 100 person-years
participants scoring 24 or less in MMSE (mild impairment), N (%) ([4]; 2 years, P 0.823 vs standard, baseline 483 (7.7)): 433 (7.6) N (%)
participants scoring 24 or less in MMSE (mild impairment), N (%) ([4]; Any measure, P 0.075 vs standard): 605 (10.4) N (%)
participants scoring 24 or less in MMSE (mild impairment), N (%) ([4]; End of study, P 0.358 vs standard): 464 (9.6) N (%)
participants scoring 24 or less in MMSE (mild impairment), N (%) ([4]; ~4 years, P 0.022 vs standard): 449 (9.0) N (%)
